Results: patent US20250026860A1 (NATIONAL UNIVERSITY CORPORATION OKAYAMA UNIVERSITY, published 2025)

Assays:
Experiment in all cases: ELISA, albumin preparation immobilized on 96-well microplate
[1] = molecular target: bovine serum albumin protein adduct with 4-HNE (bovine) (UniProt P02769)
[2] = molecular target: human serum albumin protein adduct with 4-HNE (human) (UniProt P02768)
[3] = molecular target: rabbit serum albumin protein adduct with 4-HNE (rabbit) (UniProt P49065)
[4] = molecular target: rat serum albumin protein adduct with 4-HNE (rat) (UniProt P02770)
[5] = molecular target: T1, bovine serum albumin modified with glyceraldehyde (bovine, UniProt P02769 25-607, non-enzymatically modified by incubation with glyceraldehyde (50 mM, 7 days); sites not stated)
T1 construct: also called Glyceraldehyde BSA
From the text: (§1) Each mixed solution of substrate albumin and a protein-modifying substance was immobilized on a 96-well microplate, and was investigated for specificity to the anti-4-HNE antibody (#13-1-1) of the present invention by an ELISA method.

[6] = molecular target: T2, rat serum albumin modified with glyceraldehyde (rat, UniProt P02770 25-608, non-enzymatically modified by incubation with glyceraldehyde (50 mM, 7 days); sites not stated)
T2 construct: also called Glyceraldehyde Rat-SA
From the text: as §1

[7] = molecular target: T3, rabbit serum albumin modified with glyceraldehyde (rabbit, UniProt P49065 25-608, non-enzymatically modified by incubation with glyceraldehyde (50 mM, 7 days); sites not stated)
T3 construct: also called Glyceraldehyde Rabbit-SA
From the text: as §1

[8] = molecular target: T4, human serum albumin modified with glyceraldehyde (human, UniProt P02768 25-609, non-enzymatically modified by incubation with glyceraldehyde (50 mM, 7 days); sites not stated)
T4 construct: also called Glyceraldehyde HSA
From the text: as §1

[9] = molecular target: T5, bovine serum albumin modified with glycolaldehyde (bovine, UniProt P02769 25-607, non-enzymatically modified by incubation with glycolaldehyde (50 mM, 7 days); sites not stated)
T5 construct: also called Glycolaldehyde BSA
From the text: as §1

[10] = molecular target: T6, rat serum albumin modified with glycolaldehyde (rat, UniProt P02770 25-608, non-enzymatically modified by incubation with glycolaldehyde (50 mM, 7 days); sites not stated)
T6 construct: also called Glycolaldehyde Rat-SA
From the text: as §1

[11] = molecular target: T7, rabbit serum albumin modified with glycolaldehyde (rabbit, UniProt P49065 25-608, non-enzymatically modified by incubation with glycolaldehyde (50 mM, 7 days); sites not stated)
T7 construct: also called Glycolaldehyde Rabbit-SA
From the text: as §1

[12] = molecular target: T8, human serum albumin modified with glycolaldehyde (human, UniProt P02768 25-609, non-enzymatically modified by incubation with glycolaldehyde (50 mM, 7 days); sites not stated)
T8 construct: also called Glycolaldehyde HSA
From the text: as §1

[13] = molecular target: T9, bovine serum albumin modified with methylglyoxal (bovine, UniProt P02769 25-607, non-enzymatically modified by incubation with methylglyoxal (50 mM, 7 days); sites not stated)
T9 construct: also called Methylglyoxal BSA
From the text: as §1

[14] = molecular target: T10, rat serum albumin modified with methylglyoxal (rat, UniProt P02770 25-608, non-enzymatically modified by incubation with methylglyoxal (50 mM, 7 days); sites not stated)
T10 construct: also called Methylglyoxal Rat-SA
From the text: as §1

[15] = molecular target: T11, bovine serum albumin, unmodified (bovine, UniProt P02769 25-607)
T11 construct: also called BSA
From the text: as §1

[16] = molecular target: T12, rabbit serum albumin modified with methylglyoxal (rabbit, UniProt P49065 25-608, non-enzymatically modified by incubation with methylglyoxal (50 mM, 7 days); sites not stated)
T12 construct: also called Methylglyoxal Rabbit-SA
From the text: as §1

[17] = molecular target: T13, human serum albumin modified with methylglyoxal (human, UniProt P02768 25-609, non-enzymatically modified by incubation with methylglyoxal (50 mM, 7 days); sites not stated)
T13 construct: also called Methylglyoxal HSA
From the text: as §1

[18] = molecular target: T14, bovine serum albumin modified with glyoxal (bovine, UniProt P02769 25-607, non-enzymatically modified by incubation with glyoxal (50 mM, 7 days); sites not stated)
T14 construct: also called Glyoxal BSA
From the text: as §1

[19] = molecular target: T15, rat serum albumin modified with glyoxal (rat, UniProt P02770 25-608, non-enzymatically modified by incubation with glyoxal (50 mM, 7 days); sites not stated)
T15 construct: also called Glyoxal Rat-SA
From the text: as §1

[20] = molecular target: T16, rabbit serum albumin modified with glyoxal (rabbit, UniProt P49065 25-608, non-enzymatically modified by incubation with glyoxal (50 mM, 7 days); sites not stated)
T16 construct: also called Glyoxal Rabbit-SA
From the text: as §1

[21] = molecular target: T17, human serum albumin modified with glyoxal (human, UniProt P02768 25-609, non-enzymatically modified by incubation with glyoxal (50 mM, 7 days); sites not stated)
T17 construct: also called Glyoxal HSA
From the text: as §1

[22] = molecular target: T18, bovine serum albumin modified with crotonaldehyde (bovine, UniProt P02769 25-607, non-enzymatically modified by incubation with crotonaldehyde (CRA, 50 mM, 7 days); sites not stated)
T18 construct: also called CRA BSA
From the text: as §1

[23] = molecular target: T19, rat serum albumin modified with crotonaldehyde (rat, UniProt P02770 25-608, non-enzymatically modified by incubation with crotonaldehyde (CRA, 50 mM, 7 days); sites not stated)
T19 construct: also called CRA Rat-SA
From the text: as §1

[24] = molecular target: T20, rabbit serum albumin modified with crotonaldehyde (rabbit, UniProt P49065 25-608, non-enzymatically modified by incubation with crotonaldehyde (CRA, 50 mM, 7 days); sites not stated)
T20 construct: also called CRA Rabbit-SA
From the text: as §1

[25] = molecular target: T21, human serum albumin modified with crotonaldehyde (human, UniProt P02768 25-609, non-enzymatically modified by incubation with crotonaldehyde (CRA, 50 mM, 7 days); sites not stated)
T21 construct: also called CRA HSA
From the text: as §1

[26] = molecular target: T22, rat serum albumin, unmodified (rat, UniProt P02770 25-608)
T22 construct: also called Rat-SA
From the text: as §1

[27] = molecular target: T23, bovine serum albumin modified with malondialdehyde (bovine, UniProt P02769 25-607, non-enzymatically modified by incubation with malondialdehyde (MDA, 50 mM, 7 days); sites not stated)
T23 construct: also called MDA BSA
From the text: as §1

[28] = molecular target: T24, rat serum albumin modified with malondialdehyde (rat, UniProt P02770 25-608, non-enzymatically modified by incubation with malondialdehyde (MDA, 50 mM, 7 days); sites not stated)
T24 construct: also called MDA Rat-SA
From the text: as §1

[29] = molecular target: T25, rabbit serum albumin modified with malondialdehyde (rabbit, UniProt P49065 25-608, non-enzymatically modified by incubation with malondialdehyde (MDA, 50 mM, 7 days); sites not stated)
T25 construct: also called MDA Rabbit-SA
From the text: as §1

[30] = molecular target: T26, human serum albumin modified with malondialdehyde (human, UniProt P02768 25-609, non-enzymatically modified by incubation with malondialdehyde (MDA, 50 mM, 7 days); sites not stated)
T26 construct: also called MDA HSA
From the text: as §1

[31] = molecular target: T27, rabbit serum albumin, unmodified (rabbit, UniProt P49065 25-608)
T27 construct: also called Rabbit-SA
From the text: as §1

[32] = molecular target: T28, human serum albumin, unmodified (human, UniProt P02768 25-609)
T28 construct: also called HSA
From the text: as §1

[33] = molecular target: T29, bovine serum albumin modified with D-glucose (bovine, UniProt P02769 25-607, non-enzymatically modified by incubation with D-glucose (250 mM, 3 weeks); sites not stated)
T29 construct: also called D-glucose BSA
From the text: as §1

[34] = molecular target: T30, rat serum albumin modified with D-glucose (rat, UniProt P02770 25-608, non-enzymatically modified by incubation with D-glucose (250 mM, 3 weeks); sites not stated)
T30 construct: also called D-glucose Rat-SA
From the text: as §1

[35] = molecular target: T31, rabbit serum albumin modified with D-glucose (rabbit, UniProt P49065 25-608, non-enzymatically modified by incubation with D-glucose (250 mM, 3 weeks); sites not stated)
T31 construct: also called D-glucose Rabbit-SA
From the text: as §1

[36] = molecular target: T32, human serum albumin modified with D-glucose (human, UniProt P02768 25-609, non-enzymatically modified by incubation with D-glucose (250 mM, 3 weeks); sites not stated)
T32 construct: also called D-glucose HSA
From the text: as §1

T10 sequence (P02770 25-608 limits assumed): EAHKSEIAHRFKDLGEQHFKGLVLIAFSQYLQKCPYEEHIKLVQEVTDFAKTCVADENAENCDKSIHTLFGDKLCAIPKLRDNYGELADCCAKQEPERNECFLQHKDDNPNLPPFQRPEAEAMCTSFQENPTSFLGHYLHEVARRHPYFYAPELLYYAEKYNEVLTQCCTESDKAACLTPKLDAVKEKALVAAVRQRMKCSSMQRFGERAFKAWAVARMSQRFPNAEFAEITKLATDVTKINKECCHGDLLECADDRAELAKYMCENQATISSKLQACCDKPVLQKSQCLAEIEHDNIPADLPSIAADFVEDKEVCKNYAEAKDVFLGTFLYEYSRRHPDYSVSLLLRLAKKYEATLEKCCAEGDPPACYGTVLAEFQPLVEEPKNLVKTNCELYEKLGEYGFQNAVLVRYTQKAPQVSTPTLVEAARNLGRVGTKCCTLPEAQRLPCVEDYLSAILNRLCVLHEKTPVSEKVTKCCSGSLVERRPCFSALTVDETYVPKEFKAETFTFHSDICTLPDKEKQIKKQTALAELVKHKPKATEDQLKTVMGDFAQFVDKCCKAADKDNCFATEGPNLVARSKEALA
T19 sequence (P02770 25-608 limits assumed): as above
T22 sequence (P02770 25-608 limits assumed): as above
T2 sequence (P02770 25-608 limits assumed): as above
T15 sequence (P02770 25-608 limits assumed): as above
Chain of rat serum albumin protein adduct with 4-HNE (rat) (P02770 25-608 limits assumed, form in doubt): as the sequence (P02770 25-608 limits assumed) above
T6 sequence (P02770 25-608 limits assumed): as above
T30 sequence (P02770 25-608 limits assumed): as above
T24 sequence (P02770 25-608 limits assumed): as above
T18 sequence (P02769 25-607 limits assumed): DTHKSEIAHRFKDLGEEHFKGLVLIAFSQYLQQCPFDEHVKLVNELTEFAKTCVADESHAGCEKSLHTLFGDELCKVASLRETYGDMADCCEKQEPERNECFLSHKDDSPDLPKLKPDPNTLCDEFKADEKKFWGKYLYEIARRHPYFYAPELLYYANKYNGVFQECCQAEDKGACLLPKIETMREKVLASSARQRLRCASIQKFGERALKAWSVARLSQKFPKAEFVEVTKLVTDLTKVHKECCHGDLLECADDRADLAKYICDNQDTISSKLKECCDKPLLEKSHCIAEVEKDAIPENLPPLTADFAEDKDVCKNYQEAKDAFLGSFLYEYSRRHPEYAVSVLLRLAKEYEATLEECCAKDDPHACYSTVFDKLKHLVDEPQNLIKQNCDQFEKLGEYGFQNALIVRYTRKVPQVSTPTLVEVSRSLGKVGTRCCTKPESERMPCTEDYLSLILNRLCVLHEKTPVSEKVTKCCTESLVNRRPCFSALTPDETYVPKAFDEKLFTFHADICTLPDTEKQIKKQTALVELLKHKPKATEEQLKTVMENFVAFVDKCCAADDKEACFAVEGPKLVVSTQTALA
T5 sequence (P02769 25-607 limits assumed): as above
T14 sequence (P02769 25-607 limits assumed): as above
T23 sequence (P02769 25-607 limits assumed): as above
T11 sequence (P02769 25-607 limits assumed): as above
T29 sequence (P02769 25-607 limits assumed): as above
T9 sequence (P02769 25-607 limits assumed): as above
T1 sequence (P02769 25-607 limits assumed): as above
Chain of bovine serum albumin protein adduct with 4-HNE (bovine) (P02769 25-607 limits assumed, form in doubt): as the sequence (P02769 25-607 limits assumed) above
Chain of rabbit serum albumin protein adduct with 4-HNE (rabbit) (P49065 25-608 limits assumed, form in doubt): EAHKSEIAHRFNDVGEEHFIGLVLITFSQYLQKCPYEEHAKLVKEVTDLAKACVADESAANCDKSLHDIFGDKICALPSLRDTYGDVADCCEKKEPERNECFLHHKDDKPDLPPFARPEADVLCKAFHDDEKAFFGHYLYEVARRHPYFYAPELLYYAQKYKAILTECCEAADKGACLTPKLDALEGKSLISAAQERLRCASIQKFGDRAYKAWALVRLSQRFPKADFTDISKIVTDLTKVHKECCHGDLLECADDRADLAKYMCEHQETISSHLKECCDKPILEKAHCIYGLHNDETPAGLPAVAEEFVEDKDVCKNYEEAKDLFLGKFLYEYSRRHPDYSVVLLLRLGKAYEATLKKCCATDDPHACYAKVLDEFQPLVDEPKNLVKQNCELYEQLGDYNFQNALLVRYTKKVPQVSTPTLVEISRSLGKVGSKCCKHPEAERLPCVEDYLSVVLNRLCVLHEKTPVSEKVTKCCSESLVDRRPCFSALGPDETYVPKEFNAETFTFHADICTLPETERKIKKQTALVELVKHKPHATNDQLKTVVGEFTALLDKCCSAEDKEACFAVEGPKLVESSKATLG
T3 sequence (P49065 25-608 limits assumed): as the sequence (P49065 25-608 limits assumed, form in doubt) above
T12 sequence (P49065 25-608 limits assumed): as the sequence (P49065 25-608 limits assumed, form in doubt) above
T25 sequence (P49065 25-608 limits assumed): as the sequence (P49065 25-608 limits assumed, form in doubt) above
T16 sequence (P49065 25-608 limits assumed): as the sequence (P49065 25-608 limits assumed, form in doubt) above
T27 sequence (P49065 25-608 limits assumed): as the sequence (P49065 25-608 limits assumed, form in doubt) above
T20 sequence (P49065 25-608 limits assumed): as the sequence (P49065 25-608 limits assumed, form in doubt) above
T7 sequence (P49065 25-608 limits assumed): as the sequence (P49065 25-608 limits assumed, form in doubt) above
T31 sequence (P49065 25-608 limits assumed): as the sequence (P49065 25-608 limits assumed, form in doubt) above
T21 sequence (P02768 25-609 limits assumed): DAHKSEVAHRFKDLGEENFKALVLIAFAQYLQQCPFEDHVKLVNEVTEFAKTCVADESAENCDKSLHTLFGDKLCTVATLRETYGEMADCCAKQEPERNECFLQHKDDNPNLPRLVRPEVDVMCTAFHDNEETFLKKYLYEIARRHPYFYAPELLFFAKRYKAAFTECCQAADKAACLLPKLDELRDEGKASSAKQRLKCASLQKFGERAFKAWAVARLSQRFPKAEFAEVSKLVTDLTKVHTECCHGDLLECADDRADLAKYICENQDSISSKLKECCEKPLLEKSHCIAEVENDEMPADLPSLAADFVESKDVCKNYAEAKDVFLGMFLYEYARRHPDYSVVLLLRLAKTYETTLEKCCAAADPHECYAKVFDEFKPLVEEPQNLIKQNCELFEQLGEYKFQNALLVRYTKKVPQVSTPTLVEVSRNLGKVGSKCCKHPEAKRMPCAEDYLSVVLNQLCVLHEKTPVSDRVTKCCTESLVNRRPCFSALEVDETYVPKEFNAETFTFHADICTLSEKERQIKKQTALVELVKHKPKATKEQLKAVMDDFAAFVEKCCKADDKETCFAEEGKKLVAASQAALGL
T17 sequence (P02768 25-609 limits assumed): as above
T26 sequence (P02768 25-609 limits assumed): as above
T4 sequence (P02768 25-609 limits assumed): as above
T8 sequence (P02768 25-609 limits assumed): as above
Chain of human serum albumin protein adduct with 4-HNE (human) (P02768 25-609 limits assumed, form in doubt): as the sequence (P02768 25-609 limits assumed) above
T13 sequence (P02768 25-609 limits assumed): as above
T32 sequence (P02768 25-609 limits assumed): as above
T28 sequence (P02768 25-609 limits assumed): as above

B1: anti-4-HNE monoclonal antibody (#13-1-1) (antibody, V domains shown)
VH: EVKLLASGGGLVQPGGSMRLSCAASGFTFTDFYMYWIRQPAGKAPEWLGFIRNKANGYTTEYNPSVKGRFTISRDNTQNMLYLQMNTLRAEDTATYYCALGYYGYNYNWFAYWGQGTLVTVSS
VL: ETVMTQSPTSMSTSIGERVTLNCRASQSVGINVDWYQQTPGQSPKMLIYGASNRHTGVPDRFTGSGFGRDFTLTISNMEAEDLGVYYCLQYASIPYTFGAGTKLELKR
notes: Rat hybridoma monoclonal antibody; also called anti-4-HNE antibody (#13-1-1); monoclonal antibody produced from Rat hybridoma #13-1-1
ELISA reading (name and unit not given) [1]: 1.11 | ELISA reading (name and unit not given) [2]: 0.956 | ELISA reading (name and unit not given) [3]: 0.663 | ELISA reading (name and unit not given) [4]: 1.37 | ELISA reading (name and unit not given) [5]: 0.07 | ELISA reading (name and unit not given) [6]: 0.069 | ELISA reading (name and unit not given) [7]: 0.069 | ELISA reading (name and unit not given) [8]: 0.068 | ELISA reading (name and unit not given) [9]: 0.071 | ELISA reading (name and unit not given) [10]: 0.07 | ELISA reading (name and unit not given) [11]: 0.067 | ELISA reading (name and unit not given) [12]: 0.071 | ELISA reading (name and unit not given) [13]: 0.073 | ELISA reading (name and unit not given) [14]: 0.074 | ELISA reading (name and unit not given) [15]: 0.15 | ELISA reading (name and unit not given) [16]: 0.072 | ELISA reading (name and unit not given) [17]: 0.069 | ELISA reading (name and unit not given) [18]: 0.066 | ELISA reading (name and unit not given) [19]: 0.073 | ELISA reading (name and unit not given) [20]: 0.073 | ELISA reading (name and unit not given) [21]: 0.065 | ELISA reading (name and unit not given) [22]: 0.156 | ELISA reading (name and unit not given) [23]: 0.141 | ELISA reading (name and unit not given) [24]: 0.074 | ELISA reading (name and unit not given) [25]: 0.077 | ELISA reading (name and unit not given) [26]: 0.088 | ELISA reading (name and unit not given) [27]: 0.074 | ELISA reading (name and unit not given) [28]: 0.08 | ELISA reading (name and unit not given) [29]: 0.07 | ELISA reading (name and unit not given) [30]: 0.065 | ELISA reading (name and unit not given) [31]: 0.114 | ELISA reading (name and unit not given) [32]: 0.118 | ELISA reading (name and unit not given) [33]: 0.081 | ELISA reading (name and unit not given) [34]: 0.076 | ELISA reading (name and unit not given) [35]: 0.069 | ELISA reading (name and unit not given) [36]: 0.068
